Laboratory results as given in patent US20150290329A1.

Experiments:
8-arm-PEG-P1 (40 kDa) = assay: cell-based or functional assay
8-arm-PEG-P2 (20 kDa) = assay: cell-based or functional assay
Sequence of 8-arm-PEG-P2 (20 kDa) (peptide, as listed by the source): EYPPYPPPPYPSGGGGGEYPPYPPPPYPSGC

- storage modulus G′ of the hydrogel 8P1-40k (8-arm-PEG-P1 (40 kDa)): 3.9 Pa
- storage modulus G′ of the hydrogel 8P2-20k (8-arm-PEG-P2 (20 kDa)): 15 Pa
Substance: C7 recombinant protein polymer (seven repeats of the CC43 WW domain) (designed binder)
